Assay results: publication PMC6602974 (Nature Communications, 2019)

Biological target: CH505 transmitted founder gp120 (HIV-1 CH505 transmitted/founder, UniProt M4M3Q1, strain)
Test: SPR
Details: both partners purified

B1: DH753 monoclonal antibody (IgG1) (antibody, V domains shown)
VH: EVHLVESGGGLVQPGGSLRLSCEVSGLTFSNSWMSWVRQAPGKGLEWVGFIKTKADGGTAAYAESVKGRFTISRDDSKNTVFLQMKSLKTEDTAVYYCQGAVVISHEYIEIWGQGALVTVSS
VL: QSVLTQPPSASEAARKSVTISCSGGSSNIGDDSVSWYQQVPGTAPKLLIYYNDRRASGVSDRFSGSKSGTSASLAINGLQSEDEADYYCAAWDDSLSAYIFGSGTRLTVL
notes: copies: 2 + 2
  binding result: binds

B2: DH727.2 monoclonal antibody (IgG1) (antibody, V domains shown)
VH: QVQLVQSGAEVKKPGASVKLSCKASGNTFSIYGISWVRQAPGQGLEWMGGIIPPAGLTNYVQRFQGRVTITADTSTTTVYMELSSLTSEDTAVYYCAIRIGRGFDYWGQGVLVTVSS
VL: DIVMTQSPLSLPVTPGETASISCRSSQSLLDSEDGNTYLEWYLQKPGQSPQALIYEASNRASGVPDRFSGSGSDTDFTLKISRVEAEDVGIYYCMQTIEYPFTFGPGTKVDIK
notes: copies: 2 + 2
  binding result: binds
